In experiment [1] the target is CD28 (human). The experiment can be described thus: flow cytometry on HEK293 cells transfected with CD28.
In experiment [2] the target is CD80 expressed on cells (Homo sapiens). The experiment can be described thus: flow cytometry, cells expressing CD80. In general terms: Flow cytometry measures light scatter and fluorescence of single cells or particles in a stream.
Experiment [3] has as its target PD-1 expressed on cells (human). The experiment can be described thus: flow cytometry, cells expressing PD-1.

Our source for the MFI and Fold Change Compared to WT PD-L1 values is US20230381229A1.

Residue numbers refer to the chain shown, from its start. Names may count otherwise.

Chain of PD-1 expressed on cells (human) (chain, as listed by the source): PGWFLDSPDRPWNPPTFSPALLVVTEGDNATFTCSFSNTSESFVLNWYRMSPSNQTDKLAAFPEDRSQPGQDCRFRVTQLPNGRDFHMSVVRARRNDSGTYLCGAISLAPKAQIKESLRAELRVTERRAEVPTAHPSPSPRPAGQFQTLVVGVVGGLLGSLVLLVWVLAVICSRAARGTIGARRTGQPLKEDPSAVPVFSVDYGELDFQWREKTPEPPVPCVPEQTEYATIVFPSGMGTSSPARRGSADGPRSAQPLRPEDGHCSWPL

B1: WT CD80 IgV/IgC-Fc (Fc fusion)
chain: VIHVTKEVKEVATLSCGHNVSVEELAQTRIYWQKEKKMVLTMMSGDMNIWPEYKNRTIFDITNNLSIVILALRPSDEGTYECVVLKYEKDAFKREHLAEVTLSVKADFPTPSISDFEIPTSNIRRIICSTSGGFPEPHLSWLENGEELNAINTTVSQDPETELYAVSSKLDFNMTTNHSFMCLIKYGHLRVNQTFNWNTTKQEHFPDN
Take B1: the MFI at 66.6 nM in experiment [1] is 3070.

B2: variant PD-L1 ECD-Fc K57R, S99G, L124S, K144Q (Fc fusion)
chain: FTVTVPKDLYVVEYGSNMTIECKFPVEKQLDLAALIVYWEMEDKNIIQFVHGEEDLRVQHSSYRQRARLLKDQLSLGNAALQITDVKLQDAGVYRCMIGYGGADYKRITVKVNAPYNKINQRISVVDPVTSEHELTCQAEGYPQAEVIWTSSDHQVLSGKTTTTNSKREEKLFNVTSTLRINTTTNEIFYCTFRRLDPEENHTAELVIPELPLAHPPNER
In the case of B2, the Fold Change Compared to WT PD-L1 in experiment [2] came to 105; in experiment [3], 0.7.

B3: variant PD-L1 ECD-Fc I36T, I83T, M97L, K144E, P198T (Fc fusion)
chain: B2 chain with I36T, R57K, I83T, M97L, G99S, S124L, Q144E, P198T
In the case of B3, the MFI at 20 nM in experiment [3] turned out to be 62.

B4: variant PD-L1 ECD-Fc I36T, M97L, Q155H, F193S, N201Y (Fc fusion)
chain: B2 chain with I36T, R57K, M97L, G99S, S124L, Q144K, Q155H, F193S, N201Y
As to B4, the Fold Change Compared to WT PD-L1 was determined as 9.3 in experiment [2] and 0 in experiment [3]. Further, the MFI at 20 nM in experiment [2] was 1250; in experiment [3], 69.

B5: variant PD-L1 ECD-Fc N17D, M97L, S99G (Fc fusion)
chain: B2 chain with N17D, R57K, M97L, S124L, Q144K
B5: the Fold Change Compared to WT PD-L1 was found to be 547 in experiment [2] and 3.2 in experiment [3].

B6: variant PD-L1 ECD-Fc K57R, S99G, R195G (Fc fusion)
chain: B2 chain with S124L, Q144K, R195G
In experiment [2], B6 registered a Fold Change Compared to WT PD-L1 of 81.8 and an MFI at 20 nM of 11000. In addition, the Fold Change Compared to WT PD-L1 in experiment [3] came out at 0.8.

B7: variant PD-L1 ECD-Fc Y10F, M18V, S99G, Q138R, T203A (Fc fusion)
chain: B2 chain with Y10F, M18V, R57K, S124L, Q138R, Q144K, T203A
With B7, in experiment [2], the Fold Change Compared to WT PD-L1 was determined as 3.1 and the MFI at 20 nM amounted to 412. For the same molecule, in experiment [3], the Fold Change Compared to WT PD-L1 was found to be 0 and the MFI at 20 nM came out at 70.
